Experimental data reported in the supplement of paper PMC12764529.

Assay: folding stability dG unfold (combined trypsin and chymotrypsin); higher = more stable
Protocol: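 Folding stability of de novo designed mini-proteins (<80 aa, no Cys; designed by TrROS, TrMRF, ProteinMPNN and the joint model) was measured by cDNA display proteolysis with trypsin and chymotrypsin. Each protease was used at 11 concentrations in a threefold dilution series plus a no-protease condition. K50 was inferred by Bayesian fitting of sequencing counts, and dG unfold was derived against a sequence-predicted unfolded-state K50 (Tsuboyama et al. method). Sequences shown include variable-length N-terminal GS-type padding (SAGGSAGG...) inside a display construct carrying a PA tag. Rows were kept only if the AF2 dimer inter-PAE was >15, to exclude likely homo-oligomers.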

Row | Sequence | folding stability dG unfold [kcal/mol]
1 | SAGLYLVKNKETKEIVTVPAENLSDEQLKAGFEVVKLPPVKINITVESAEEAEALAKLFPDKVEVTVNESAG [r14_638_TrROS_Hall] | < -1
2 | KVPAGVEDVKVVKGPLTVKITAPVKNPNVPIKVGNKDGKVVSEKWKVDKAAGKVTVEVPVKKANEVTFNPES [r1_138_TrMRF] | < -1
3 | SAGGSEEEKAAKEAAEKELPPAEPKPVLTPDGVVTTYYPVTGAVEVTRYERDAAGVPVKVSSTTDPKSAGGS [r16_243_JUSTAS] | < -1
4 | SAGGSAGGSAGPPFEVVGVSRHGDSVTVLARNPDSDELVASTFTNGVIGSTAVIPSEEVGSAGGSAGGSAGG [r11_19_TrMRF] | < -1
5 | SAGGSAGGSNPDNNFPPRPKEPIKFPGEGMKIWVYKNHGHIFMEPPPGERQMGTIDPEDGKIVSAGGSAGGS [r12_420_TrROS] | < -1
6 | SAGGSAGGPKPAKIKEVPFKMRHPGNGQPHKMEIKEVRPDGMIEIDFPNGEEHRIPGMKIDEIESAGGSAGG [r6_435_TrROS] | < -1
7 | SAGGRGPGLPVSERKIVETRDLDPDEVSEEEIAERIKEENPDAVVEELEVDTKESKAVFKIKVKKLESAGGS [r8_202_JUSTAS] | < -1
8 | SAMEISIDPIEDGPVRVTETYKFPGYTRITVKEIPKELLEKGVPLSELPNVPVLEEEIVEIPPPSPELKSAG [r14_856_JUSTAS] | < -1
9 | SAGGSAGGSAGPEVRPAPTPDGREVWVLRRTRRHPGPGDGVVVEEEVVPADDPEALRRRASAGGSAGGSAGG [r11_967_TrMRF] | < -1
10 | SAGGSAGGSAGGSGNFTIDPALLEEARAEAAAAGEALETIPLKVTRPGGETKTIDIKVGSAGGSAGGSAGGS [r4_367_JUSTAS] | < -1
11 | SAGGSAGGSAGGPKIEIPMVHLHPNGTITVMRMKMEYDPNGKFEIKKMEMHTVPADDIKDSAGGSAGGSAGG [r7_521_TrROS] | < -1
12 | SAGGSAGGSAGPKEPIYYRLRIEPPNGETREFEFPVGASVEDIAKEFNIPPGGRVELEPVSAGGSAGGSAGG [r11_340_TrROS] | < -1
13 | SAGGSAGGEVEEEALKVAEELRREGKTGPVEKTVDIVVKTPENVPIPLNITVTVEPPSGVVTVNSAGGSAGG [r6_102_JUSTAS] | < -1
14 | SAGGMTLEEVRALAQRVSREPLPGGGSRWVVTFPRPVPGGPAAPVTREIPVPADRPDATEEEVLARLVSAGG [r13_319_JUSTAS] | < -1
15 | SAGGSAGGSAGPKWKTINFPIDLKPGQSAKEIAKKFAEANPDMEIDGFNPERGWASITVPSAGGSAGGSAGG [r11_465_TrROS] | < -1
16 | SAGGSAGGSAGMNKKVVATFTDPNSDTTTTLVGPEEAFKSQFPPETASYSLTTVPEEALLSAGGSAGGSAGG [r11_334_JUSTAS] | < -1
17 | SAMKPGTVVKVTIIPTEEKLIYNVPEKTVLKSSRTVDATVTKVSTPGSKVTLEIDLPDLPPGSEIELGLSAG [r14_412_JUSTAS] | < -1
18 | SAGGSAGGSAGVKPGQTIEVPGAKITVEEVDGKLVLKVEELPPPPAPEVEVKRYVSEEDLSAGGSAGGSAGG [r11_534_TrROS_Hall] | < -1
19 | SAGGSAGGSAVLRSALDRPVPVLLLTVPRDEVPEEEIRSLLPPELAEQFLKTAPKDSVIVASAGGSAGGSAG [r3_326_TrMRF] | < -1

Row | Sequence | folding stability dG unfold [kcal/mol]
20 | SPEGKDEKGVSYPIIVEKPDPKITPEKIKKAIEEAGGKVTKIVRPKKGKLLVVDVEVTDPEKAIEAIKKDSA [r9_1154_TrMRF] | < -1
21 | SAGGSAGGSAGGSRKINIFFDDPEQARKFAREIRNEGLPPEDMPIKVEITPIPPEDMGASAGGSAGGSAGGS [r4_281_TrROS] | < -1
22 | SAGGSAGGSAPKLKFETEPYPNGGYYHKVKIDLEGPKIPITIPVNNNQPMPIEDFAKHILKKSAGGSAGGSA [r18_111_TrROS] | < -1
23 | SAGGSLEEIADELAQKPGFDEVKIDVWKPPNGNFMLSVHNKENNRELQIPLPPNWKPVGTYELPVKSAGGSA [r2_74_TrROS] | < -1
24 | SAGGSMTVKEFTDPEEVEKAVEEMDSNEVAVMPVPERPVERVFTKINDKVIRETINGETVTTEELLSAGGSA [r2_280_JUSTAS] | < -1
25 | SAGGRYLTLRIPPNHPGDIDIEPVPADDMPPGWGYKIYSPKKGHTQTFPLDNADELLDHPGIDEIEPVSAGG [r19_302_TrROS] | < -1
26 | SAGGSAGGSAGGPPPEKAAAYLVKYRNPDGGPLGTRPVELPPDRPEVEHDPSFVSVEVASAGGSAGGSAGGS [r10_675_JUSTAS] | < -1
27 | SAGGSAGGSQKITIEWHKPGAWRIRIPGNGRERHLPMDKPLEEIANTAEKKFPNIPVEIERVKSAGGSAGGS [r12_423_TrROS] | < -1
28 | GMRPVTATIEIGPNGKLTLQPAVGPSTVVPVKSKEEGIAVVKELVPPDRPITLTFYEKSKKISTEPIEIPPS [r1_276_JUSTAS] | < -1
29 | SAGGSAGGSAGGSTPSGTLKEVSEEVEPDGIRITTTTYSLPNPGVFKTVVTVEPEAREESAGGSAGGSAGGS [r4_163_JUSTAS] | < -1
30 | SAGGSAGGSAGPPVPKLFKVKEVTYHPGPKTVTVKTENGETITVPPGVAENVPPGGYLAASAGGSAGGSAGG [r11_124_TrMRF] | < -1
31 | SAGGSAGGDNKPLRVRIRSPANGQKMKFKIKPDKIEPGKTIEIKHGDKPHTFNINPAQIDELEPSAGGSAGG [r6_461_TrROS] | < -1
32 | SAGGSAGGSAGGSGNGMKLVKKKEVVKEEGAVVKLPNGETIEVPPDETITVEIEEEVSLSAGGSAGGSAGGS [r4_26_JUSTAS] | < -1
33 | SASDEDQKKQQEQQKPPIKPPEFPVKLNGKKIEKIRFNPPTDRIWFEWPNGKEIPIDPGMSLEEILKKISAG [r14_59_TrROS] | < -1
34 | SAGAKLYTVKAPGSSELLKGLKEKGVEILGTEENVVVVKVPVVPPLTPEAIEEAKKEGLTLEEAIKKASAGG [r19_115_TrMRF] | < -1
35 | SAGGMTSEVIETTEEEPERLIKKTFKVTYDENGTPKPELLKVETSPVPEEEIDPSNAPKEKAEKLGLLSAGG [r13_964_JUSTAS] | < -1
36 | SAGGSAGGSAGGMLPNPKTIKVPLKPGETKEKVKEEAEKKFPPGKITVTVSEDGTATVLVSAGGSAGGSAGG [r7_273_JUSTAS] | < -1
37 | SAGGSAGGSAEEEKTVVEEKVEVKVEVKLKAPPPPEVTVSVELDEETNELKITASAEALKKSAGGSAGGSAG [r3_186_TrROS_Hall] | < -1
38 | SAGGMIVLEFTDPSELEKLEEKVEEIKEELIKEGIKPPNVEIKVTRTTRKLPNGTERYTAPVSIKLPSAGGS [r16_591_JUSTAS] | < -1

Row | Sequence | folding stability dG unfold [kcal/mol]
39 | SAGGSAGGSAGGAMPSDVLSTTTEPVAPTGSKTVSAPDAVVTVTLDPNTPVATTKTYGVSAGGSAGGSAGGS [r10_965_JUSTAS] | < -1
40 | SAGGSAGGSAGSMTVLEEEEIELPDDVVLTRLKVPGEELIRIEIPEEGKEEIIPASEWPGSAGGSAGGSAGG [r17_286_JUSTAS] | < -1
41 | SAGGSAGGSAGPKPVMWRIEFDNPDNGQKQEITIMIPPDDPEQAEEIAKKIGPNVKIEPVSAGGSAGGSAGG [r11_250_TrROS] | < -1
42 | SDPQQLPPELIDNIAKEFPHIKAIEIQPHPPGMVHVDAEYRDDGKEKRVEFQIPNPNGNTHQFEIEIRKPSA [r9_678_TrROS] | < -1
43 | SAGGSAGGSAGGGPMVTRTIPRGVVVTKAELKDDKPVKYTVVKEEPVPVTVRALPEELLSAGGSAGGSAGGS [r10_492_JUSTAS] | < -1
44 | SAGGSAGGSAGGMTVKEIAEKLGLPPGLKVEDIPLDPPNGYFEIEITHDDGPHTYRIPISAGGSAGGSAGGS [r10_17_TrROS] | < -1
45 | SAGGSAGGSKMTVRIDEVHTHKHDGRRYLSVPLRFPDNGKPIDFHIPPDDLKNLKPGEEITIESAGGSAGGS [r12_382_TrROS] | < -1
46 | SAGGSAGGSAGTEISLPSSLPDRPIETVPVEIVSPGPGDPRRETINVTRTPDRVLAVDRRSAGGSAGGSAGG [r11_21_JUSTAS] | < -1
47 | SAGGSAGGSGKKYMIDSPEAMNDMRDAGIPPKKIEPEPYPIPANDNPGFKDMPWPMTMYRVKVSAGGSAGGS [r12_78_TrROS] | < -1
48 | SAGGSAGGSAINLADIHEVEVEEIPEDPTAVYRVRARLPEPGVPVDFLLVRFPDGSVRFYGSAGGSAGGSAG [r3_234_TrMRF] | < -1
49 | SAMVKTKDGKELEITRKAKPDELTEEEIKALAEEEVKKLVPEDLEVEVEVEISREPDGTYVVSVPVKKKSAG [r14_389_JUSTAS] | < -1
50 | SVRPDEPVRITVRFPARPVTRYRARPTGPFLGAEPVPVPSATLTLTVPAADLEAVLDALRPLGVEVEVDPSA [r9_167_TrMRF] | < -1
51 | SAGGMVVELPSGLSPEELERAAEEIAAELPRRGVDPVEVTIEPVREVAPPDGPPVRLYRITIDTVPPSAGGS [r16_266_JUSTAS] | < -1
52 | SAGGSAGGPPVVTKTDPNTGAVYTKVGDTWTSTPVPPPVVVRPVPLYDPDGRPLATGYTVLRLESAGGSAGG [r6_313_JUSTAS] | < -1
53 | SAGGSAGGSAGGSGELELTVVSPLPDGTVKVTRYRVELPEDGLEITEVETEEVPPEEAGSAGGSAGGSAGGS [r4_389_TrMRF] | < -1
54 | SAGGMKTIEYPVVMDEEEAVKLVEELVAKAKAEGEETVVKVEVYRIGKGPDGVPTREKLGTYEVEVPGSAGG [r13_974_JUSTAS] | < -1
55 | SAGGSAGGSAGVFWRIRMPGHTIPIPIEGDLNEAKDYIRDEMREHHGEPIDPDNIEIEIVSAGGSAGGSAGG [r11_1028_TrROS] | < -1
56 | SAVKVEEKDDVTIKTYTEPEGGLELVETIDKNGNLIAKTEIKVERKPDAKGNLYVTKVSTKTTVLNPNPISA [r9_262_JUSTAS] | < -1
57 | SAGGSAGGSVIEKDPDDTILLKLEIPEEGKESLVTLPKDEVEKVIEEKGVKKLTALKLGEPKPSAGGSAGGS [r12_294_JUSTAS] | < -1
